Results as given in doi:10.1101/2023.11.22.568361.

Legend:
N-protein WT (NWT) = N-protein WT (NWT) (SARS-CoV-2, UniProt P0DTC9 1-419); assay: SV-AUC; […], pH 7.4; […], pH 7.4; […], pH 7.50; temperature not given; details: protein: recombinant; tags: N-terminal 6xHis-TEV, cleaved; chain copies: 2; single strand
CTD = CTD (SARS-CoV-2, UniProt P0DTC9 247-364); assay: as above; details: protein: recombinant; tags: N-terminal 6xHis-TEV, cleaved; chain copies: 2; single strand

Row | Binder | binding result (N-protein WT (NWT)) | binding result (CTD)
1 | TTTTTTTTTT (ssDNA) [T10] | binds | –
2 | TTTTTTTTTTTTTTTTTTTTTTTTTTTTTTTTTTTTTTTT (ssDNA) [T40] | binds | binds
